{"source": "patent CN104744590A", "binders": {"B1": {"name": "抗甲型H1N1猪流感病毒血凝素蛋白鼠单克隆抗体 (antibody, V domains shown)", "VH": "EIQLQQTGPELVKPGAPVKISCKASGYSLTDYIILWVKQSHGKSLEWIGNINPYFGTTSYNLKFKDKATLTVDKSSSTAYMELNSLTSEDSAVYYCARNDNYAMDYWGQGTSVTVSS", "VL": "QIVLTQSPAIMSASLGERVTMTCTASSSVSSTYLHWYQQKPGSSPKLWIYSTSNLASGVPARFSGSGSGTSYSLTISSMEAEDAATYYCHQYHRSPYTFGGGTKLEIKR"}}, "key": {"[1]": {"target": "重组血凝素蛋白 H1N1(A/California/7/2009) (Influenza A virus H1N1 (A/California/7/2009))"}, "[2]": {"target": "重组血凝素蛋白 H1N1(A/California/4/2009) (Influenza A virus H1N1 (A/California/4/2009))"}, "[3]": {"target": "重组血凝素蛋白 H6N1(A/Califomia/HKWF115/2007) (Influenza A virus H6N1 (California/HKWF115/2007 as printed))"}, "[4]": {"target": "重组血凝素蛋白 H1N3(A/duck/NZL/160/1976) (Influenza A virus H1N3 (A/duck/NZL/160/1976))"}, "[5]": {"target": "重组血凝素蛋白 H1N1(A/Ohio/UR06-0091/2007) (Influenza A virus H1N1 (A/Ohio/UR06-0091/2007))"}, "[6]": {"target": "重组血凝素蛋白 H2N2(A/Canada/720/2005) (Influenza A virus H2N2 (A/Canada/720/2005))"}, "[7]": {"target": "重组血凝素蛋白 H1N2(A/swine/Guangxi/13/2006) (Influenza A virus H1N2 (A/swine/Guangxi/13/2006))"}, "[8]": {"target": "重组血凝素蛋白 H1N1(A/Puerto Rico/8/1934) (Influenza A virus H1N1 (A/Puerto Rico/8/1934)) (UniProt P03452)"}, "[9]": {"target": "重组血凝素蛋白 H1N1(A/New Caledonia/20/1999) (Influenza A virus H1N1 (A/New Caledonia/20/1999))"}}}
{"binder": "B1", "values": [{"measurement": "OD450nm值", "setting": "[1]", "value": 1.88, "unit": "OD450nm"}, {"measurement": "OD450nm值", "setting": "[2]", "value": 2.01, "unit": "OD450nm"}, {"measurement": "OD450nm值", "setting": "[3]", "value": 0.003, "unit": "OD450nm"}, {"measurement": "OD450nm值", "setting": "[4]", "value": 0.001, "unit": "OD450nm"}, {"measurement": "OD450nm值", "setting": "[5]", "value": 0.015, "unit": "OD450nm"}, {"measurement": "OD450nm值", "setting": "[6]", "value": 0.002, "unit": "OD450nm"}, {"measurement": "OD450nm值", "setting": "[7]", "value": 0.004, "unit": "OD450nm"}, {"measurement": "OD450nm值", "setting": "[8]", "value": 0.005, "unit": "OD450nm"}, {"measurement": "OD450nm值", "setting": "[9]", "value": 0.001, "unit": "OD450nm"}]}
